# Experimental data as given in the supplement of paper PMC12042874.
# ± gives the uncertainty stated by the source.
# Test: amyloid nucleation score (Sup35N fusion, yeast selection) (log enrichment); library NNK2; higher = more nucleation; inactive = no reads after selection
# How it was run: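 Peptides of 20 random codons, each fused to Sup35N, were expressed in psi-negative yeast. Cells were induced with 100 μM copper sulfate for 24 hours and grown 7 days at 30°C on medium lacking adenine and uracil, and plasmid inserts before and after selection were Illumina-sequenced. Nucleation scores are DiMSum log enrichments of output over input reads, centred on the mode score of non-aggregating sequences, and sequences under 100 input reads were excluded.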
row,Substance,amyloid nucleation score
1,MGAVESGKSRSMCAVLAWSE,1.02 ± 0.41
2,MGCLTVVRNLEFNRVCGRGD,-0.669 ± 0.49
3,MGENVLGRQGVLPKGEI,0.192 ± 0.45
4,MGEYFSMALYAPYTWVFMSV,-1.55 ± 1
5,MGIMPQITLDLNLLYLGKVL,0.14 ± 0.35
6,MGLVDGMCMFDFDLVLAVVG,inactive
7,MGQTVSRPWQAGSLYGANPC,0.926 ± 0.45
8,MGRTHRTTTPGSRFYTSTAF,-0.57 ± 1
9,MGRTMILRSLDQMMVITVGL,-0.598 ± 0.36
10,MGSNAWVLNNACHGLFTSAS,0.386 ± 0.35
11,MHASGHWYMKRSSLGADSPV,0.815 ± 0.18
12,MHCYSIGFRLMRSANMLSCY,0.394 ± 0.33
13,MHGREFWRCTSWSSLVNLGV,0.998 ± 0.19
14,MHVDVV,-0.352 ± 1
15,MIFLYCYIRIEKKVS,-0.927 ± 0.36
16,MIHQIELNDIGWVLTTFCNE,-0.536 ± 1
17,MIRLRIVYGTLDMYGLQMYS,1.46 ± 0.27
18,MIRWSRRTCRKGLTECTCST,1.52 ± 0.33
19,MIVFLYRLY,-0.061 ± 0.39
20,MIVWWNYCGSAVPRKIL,-0.586 ± 1.1
21,MKCWASPGWTQIQMEPKEGS,0.064 ± 0.26
22,MKFKYTNHVYRIDCRSAT,0.551 ± 0.38
23,MKFQPETVCYFRGYWLDRQY,-0.251 ± 0.39
24,MKLVECNMDGCDTNTSFGWL,-0.884 ± 0.78

row,Substance,amyloid nucleation score
1,MKYSSFINLLPTTWQHYTMN,-0.119 ± 0.65
2,MLANTYDSEPSRHRCVGKPI,0.754 ± 0.44
3,MLDVVARNH,1.52 ± 0.3
4,MLFSRFRNICG,-0.08 ± 1
5,MLKIHFLPLLGQWTLCRNPL,1.28 ± 0.43
6,MLLHMWCWIGPGKYLSVTKF,inactive
7,MLNARELGETNKMLIVWVYL,0.441 ± 0.22
8,MLRPAAHDGVKASYVKFKI,0.489 ± 0.45
9,MLSDSLLDCRVLLMVFGRET,3.81 ± 0.051
10,MLSTSDPVGFGRFCQNDWLN,0.256 ± 0.55
11,MLVLSTGHPRGFWTRVVCCD,0.092 ± 1.1
12,MLVMTMLWKMFSVAG,0.432 ± 0.26
13,MLYLCMFTERVDDNTFALYR,inactive
14,MMAIHVRMLARQSFGRICFM,3.45 ± 0.098
15,MMLSLANNHGSL,0.174 ± 0.28
16,MMRVTIPGVVLSCWPFGSTR,3.09 ± 0.11
17,MNIFKYFQSSSETMLTLKCT,-0.724 ± 1
18,MNLPKFNSYLMDSANARASP,0.58 ± 0.19
19,MNNDSAFIEYTGHQWIWGVR,0.269 ± 0.26
20,MNVDGNFWAGVELTYIEGSS,-0.587 ± 0.79
21,MPGKPWTGVVLKPRSESPAW,0.057 ± 0.48
22,MPIEVILCFGG,1.84 ± 0.34
23,MPNNVPEEN,0.216 ± 0.62
24,MPPHSVSVITNSHF,inactive

row,Substance,amyloid nucleation score
1,MRCNYLAEYRFQRG,-0.669 ± 0.44
2,MRGTRACIFKRQDTSNTLNE,-1.42 ± 0.62
3,MRHILCISSVGRFNFRCCFK,-0.038 ± 1
4,MRHRCGHKKVSGV,1.27 ± 0.49
5,MRKLSKLLTWHPRHA,-0.517 ± 0.54
6,MRKWTVSGIRGGRN,0.879 ± 0.23
7,MRLNYVYGCSFLDRIGT,0.57 ± 0.33
8,MRMYLGVDSENRASDMGRTR,1.03 ± 0.36
9,MRVLFIDYKTVRYCDDL,-1.03 ± 1.1
10,MRWGY,-0.393 ± 1
11,MRYEALMHPWSWRFR,1.06 ± 0.12
12,MSCTRDSLCLNFLVILFTTQ,3.03 ± 0.065
13,MSGFKGVITSTFIANSLLPM,-1.17 ± 0.48
14,MSIRIGEWPVHSGAYEESLK,0.223 ± 0.45
15,MSLGMCFKWRHRNIVYNLSA,-0.408 ± 0.63
16,MSLTIWGICRCKQ,-0.097 ± 0.76
17,MSMSHSAGDRDGWIFDHRDV,1.46 ± 0.61
18,MSRNF,4.87 ± 0.076
19,MSRPSSYS,inactive
20,MTGSTSKMGRCFWQFICSGL,inactive
21,MTVDYLHRLCCMRPLYTSKN,inactive
22,MTYCCITSVPRGRIQNDAVR,inactive
23,MTYCVN,3.87 ± 0.067
24,MVAGITFTNASIWTYNK,3.63 ± 0.075

row,Substance,amyloid nucleation score
1,MVCSRYRRVCSNVNG,0.506 ± 0.48
2,MVHPDVNHSYGSVWKPWSDK,0.132 ± 0.44
3,MVLASAAKVMEVLNSKQFT,1.42 ± 0.13
4,MVMGTYVIVRLYKHKNCNAY,-1.36 ± 0.55
5,MVMTYLWARGCCMKLGVQFG,0.396 ± 0.66
6,MVSLLNFRECMHY,inactive
7,MVVDFVVYITVCSFRFKQTF,1.97 ± 0.18
8,MVVRDL,-0.536 ± 1
9,MVVSFGRLGGNLRRNLKVRI,0.214 ± 0.65
10,MVYRSDAGCSPVVTKK,0.259 ± 0.5
11,MYDCGVLFIDIRVKVGHVLE,0.167 ± 0.56
12,MYIRYPFATPYWSFLLGKVT,-0.117 ± 0.35
13,MYPSG,0.321 ± 0.49
14,MYTAMSDSPFNVWRYGMSSY,-0.382 ± 0.29
15,MYWFGTVHQFRKFSENHRMF,0.721 ± 0.8
16,MYYLNSFGRELLSGLKCYKT,-0.698 ± 0.5
17,NAIRFLVMLVGTWF,0.25 ± 0.24
18,NALHEIQLDICMRSIEARGY,-1.19 ± 0.39
19,NARCMCWSGINLVTWYLLKE,7.145 ± 0.04
20,NAVYACLVGEVLWSSISTLS,0.058 ± 0.54
21,NAYWNDGFVQAFGRGK,-0.644 ± 0.63
22,NCDVGYLCLEKFNIPRRSVL,-0.805 ± 0.64
23,NCIRSNDRMMFPLCVTLSCS,0.335 ± 0.39
24,NCNRYRMRTKFRRSYMGSVR,0.157 ± 0.28

row,Substance,amyloid nucleation score
1,NCPCGHVVRVNNNWRCFSVT,6.933 ± 0.052
2,NCSKENKPGVIETISVGMGP,1.01 ± 0.48
3,NCYFKLSYEDMIRQCKRLNE,3.44 ± 0.069
4,NDAYITSVVGFTRYMYNFMV,inactive
5,NDFWRYV,-0.591 ± 0.24
6,NDKSFSMLATE,0.707 ± 0.46
7,NDSVRTVGCIQYMMRIASVF,0.783 ± 0.57
8,NELNLDKPSDLPLS,0.844 ± 0.31
9,NESSTSQNKGTRTDKGAESL,0.376 ± 0.33
10,NFDSYVYNVASVFYVVGLGV,5.321 ± 0.048
11,NFFNFSDMYRYGNKIWGGAN,0.208 ± 1.1
12,NFIVIALRGTDNTYSLSGLS,6.407 ± 0.043
13,NFKWLILAGGVC,-0.808 ± 0.41
14,NFLWPCRIHVQGCIHISDTD,6.171 ± 0.045
15,NFNHVSEI,inactive
16,NFNYFGWISQEIPPLLAGLS,-0.509 ± 1.1
17,NFQVNMFVMF,8.986 ± 0.027
18,NFSTGEGMYRNYNWDSQVRV,inactive
19,NFTSGGRRHNVERVGHLGLV,-0.168 ± 0.76
20,NFTYVSIVMLLSRVWVGFNK,inactive
21,NFYAYIIVDCSWMCSTCYSL,5.52 ± 0.044
22,NGGLLYDI,inactive
23,NGNGCLAFAKTVFCWVDGLP,7.215 ± 0.046
24,NGRIICNESMSLYKSEV,0.842 ± 0.8

row,Substance,amyloid nucleation score
1,NGSMIKWDRFASCILHAML,inactive
2,NGTTWKYYSRMSVTCAGPSI,-0.952 ± 0.39
3,NGTVDACLSLMPQGWHSGLE,3.76 ± 0.12
4,NGVRYYFRVRGSMTRLNEAE,0.276 ± 1
5,NGWIYAYDLLLERTSQSWKI,-0.472 ± 0.32
6,NGWKYLYIWFPAICSCFMRG,-0.213 ± 0.24
7,NHAVVCLDFNGGFPGQA,-0.481 ± 0.53
8,NHLLMGGGHKDAVGQSVFGI,0.074 ± 0.74
9,NHSMRFVLTMPILWKNQKAG,0.228 ± 1
10,NIAVPEKAVYTYSPSETQAL,-0.583 ± 0.55
11,NIFMLTLGCGCQAFCSVIMT,1.44 ± 0.17
12,NIFRMHLGQASQVIIFLDCR,4.58 ± 0.12
13,NIGKMLRALFDMSNVRT,-1.17 ± 0.39
14,NILLIPMRGFSRFRSVMVIP,-0.202 ± 1.1
15,NINRAQHISDVSCPDENLCI,4.07 ± 0.11
16,NIRFTSLFRLCYFSCDSVSN,5.301 ± 0.035
17,NKRLLLMFNRWDCVVSWDKC,-1.31 ± 0.78
18,NKRMRVRVEGRLINV,0.089 ± 0.42
19,NKRPSRTNLWIKALVRP,inactive
20,NKTPYIDFVLTR,0.236 ± 1.1
21,NKVEALLWTKTTLQCSLRSV,4.82 ± 0.059
22,NKVVAFNGLV,inactive
23,NKVVGNTNTFLEND,3.91 ± 0.094
24,NKWSPEGNSACRDSVCTHIY,-0.807 ± 0.76

row,Substance,amyloid nucleation score
1,NLAFSSSIRPLITLEGELLP,-0.176 ± 1.1
2,NLDCLYTLAS,0.339 ± 0.8
3,NLDEQGFAVSWETVLLWSEE,-0.005 ± 0.5
4,NLDGIVRMTN,-0.543 ± 0.56
5,NLFLLYEAW,-0.155 ± 0.2
6,NLFYLARSMLINLQMYKTER,4.46 ± 0.08
7,NLGCWLVGWLNCGFRWDDDR,5.639 ± 0.038
8,NLGHTCVCFKRIRSYFFSYR,-0.94 ± 0.49
9,NLGTWD,-0.156 ± 0.28
10,NLGYYTG,-0.868 ± 1.1
11,NLHLGMEFTCELRCYWIRLP,0.279 ± 0.5
12,NLIKNSAMLSSTRPIYHHSI,-1.27 ± 0.3
13,NLILWKTYCAAFCVGFINCT,5.36 ± 0.069
14,NLLLVFSILNSGRMTLNDNK,5.48 ± 0.094
15,NLLWLFDV,0.19 ± 1.1
16,NLLWYKLNLNTYVACAIKWW,0.198 ± 0.38
17,NLNFKDGPGDLTCMRDRAFS,-0.508 ± 0.63
18,NLRLDIAFSPWPRSGYNSGS,0.292 ± 0.64
19,NLTMYILRNYTCIMYYIKVC,-0.208 ± 1
20,NLTVCMLDSPGYQKDCGMRL,1.54 ± 0.27
21,NLVFSTRIHKFFLNRGEG,5.15 ± 0.058
22,NLYMFIRRAPDIIFCAHVYQ,4.35 ± 0.051
23,NMGLFGGILVFVMWLIMCSL,2.31 ± 0.15
